Results on 4 substances are retold here after article PMC12449476, “Transient ligand contacts of the intrinsically disordered N-terminus of neuropeptide Y2 receptor regulate arrestin-3 recruitment” (Nature Communications, 2025).

For test [1], the target named is Δ2–41 variant or charge reversal in the acidic patches (Nluc-Y2R-eYFP variants, ligand dissociation). Briefly: FRET or BRET; NanoBRET ligand dissociation from the low-affinity state: membranes pre-incubated with 300 nM K18-Tamra-NPY for 10 min, re-binding blocked by 50 µM JNJ-31020028, BRET decay for 20 min, one-phase dissociation fit.
The target of test [2] is Nluc-Y2R-eYFP D42A-S43A-T44A (human) (UniProt P49146). Briefly: FRET or BRET; NanoBRET equilibrium binding: dilution series of K18-Tamra-NPY on HEK293 membranes with Nluc-Y2R-eYFP variants, HBSS, 20 mM HEPES pH 7.4, 0.1% BSA, 10 min at room temperature; unspecific binding with 100 µM JNJ-31020028; biphasic fit (high- and low-affinity state).
Chain of Nluc-Y2R-eYFP D42A-S43A-T44A (human) (P49146 whole entry D42A/S43A/T44A): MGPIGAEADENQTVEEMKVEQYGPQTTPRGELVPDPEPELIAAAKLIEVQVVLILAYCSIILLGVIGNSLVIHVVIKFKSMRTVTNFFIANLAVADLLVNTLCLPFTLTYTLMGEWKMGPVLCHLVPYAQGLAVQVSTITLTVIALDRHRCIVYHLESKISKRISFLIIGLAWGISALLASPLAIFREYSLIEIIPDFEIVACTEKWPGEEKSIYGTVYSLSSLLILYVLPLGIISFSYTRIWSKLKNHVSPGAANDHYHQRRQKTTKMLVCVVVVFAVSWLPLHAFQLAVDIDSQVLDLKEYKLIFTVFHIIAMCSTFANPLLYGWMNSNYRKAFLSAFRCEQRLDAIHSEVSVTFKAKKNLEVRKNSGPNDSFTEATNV
The target in test [3] is Nluc-Y2R-eYFP Δ2–41 (human) (UniProt P49146). The test is described as above.
Chain of Nluc-Y2R-eYFP Δ2–41 (human) (P49146 other isoform, or with tags, fused parts or gaps): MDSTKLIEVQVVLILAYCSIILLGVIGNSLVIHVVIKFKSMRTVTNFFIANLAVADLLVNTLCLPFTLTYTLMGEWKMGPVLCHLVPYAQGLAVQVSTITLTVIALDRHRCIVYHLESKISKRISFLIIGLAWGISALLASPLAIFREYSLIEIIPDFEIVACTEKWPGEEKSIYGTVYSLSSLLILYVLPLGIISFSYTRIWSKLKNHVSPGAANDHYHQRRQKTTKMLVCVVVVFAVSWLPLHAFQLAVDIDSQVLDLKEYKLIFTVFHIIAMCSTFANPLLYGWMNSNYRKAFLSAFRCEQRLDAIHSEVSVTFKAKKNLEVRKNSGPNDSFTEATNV
Test [4] addresses Y2R-eYFP D35–E39K (human) (UniProt P49146). Kind of test: FRET or BRET; BRET between Nluc-arrestin-3 and Y2R-eYFP variants in live HEK293 cells, concentration-response to NPY, read 10 min after stimulation at 37 °C.
For test [5], the target named is Neuropeptide Y (Homo sapiens) (UniProt P01303). Particulars: cited from earlier work.
In test [6] the target is Tetramethylrhodamine-NPY (Tamra-NPY) (porcine). Briefly: fluorescence polarisation; fixed 50 nM Tamra-NPY, titrated with Y2R-loaded bicelles (x axis: log c, bicelles / M); empty bicelles as control.

pKd: −log10 of the molar value. Values joined by “and” are separate entries in the source; they are usually repeats but may differ in a detail not shown here. Identical values can stand only once.

Chain of Y2R-eYFP D35–E39K (human) (P49146 whole entry E39K): as the sequence (P49146 whole entry D42A/S43A/T44A) above, with E39K, A42D, A43S, A44T counted along it
Chain of Neuropeptide Y receptor type 2 (P49146 whole entry): as the sequence (P49146 whole entry D42A/S43A/T44A) above, with A42D, A43S, A44T counted along it
Chain of lipid-reconstituted cysteine-deficient Y2R (Y2R-Δ6) (P49146 whole entry, stated change not applied): as the sequence (P49146 whole entry D42A/S43A/T44A) above, with A42D, A43S, A44T counted along it

With K18-Tamra-NPY (peptide), the fold increase of ligand dissociation (koff) against wild-type Y2R in test [1] is 2 fold and 3 fold. For the same substance, the fold reduction of the affinity of the low-affinity state against wild-type Y2R in test [2] worked out at 3 fold. This substance also had a fold reduction of the low-affinity binding constant against wild-type Y2R in test [3] of 2 fold.
In the case of “Nluc-arrestin-3 (from UniProt P32121 1-409) (natural protein)”, in test [4], the BRETmax was 49%.
Take “Neuropeptide Y receptor type 2 (from UniProt P49146)”: the negative logarithm of the Kd (pKd) in test [5] is 6.52.
Turning to “lipid-reconstituted cysteine-deficient Y2R (Y2R-Δ6) (from UniProt P49146 1-381) (receptor)”, the pKd in test [6] is 7.35.
